These results are taken from patent US11278600B2, “Human alpha-galactosidase variants” (Codexis, Inc., priority 2014, dated 2022).

Substitutions are numbered along the chain they refer to.

Assay type in all cases: biochemical
The nature of series [1]: HTP-analysis of yeast culture supernatants, no challenge (MUGal hydrolysis). The note with it: activity of the variant/activity of WT GLA (SEQ ID NO: 5), yeast supernatant. The gist of the method:
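Activity read as 4-methylumbelliferyl α-D-galactopyranoside hydrolysis: fluorescence (355/448 nm) after sodium carbonate stop, following 30-180 min at 37° C with 2 mM MUGal stock at pH 4.6–4.8. Enzyme source is unchallenged culture supernatant of INVSc1 yeast expressing GLA variants, grown 66-84 h at 30° C.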

Series [2] is described as follows: HTP-analysis of supernatants pretreated with acid (MUGal hydrolysis). The settings on record: challenge at pH 4.2; activity of the variant/activity of WT GLA (SEQ ID NO: 5); yeast supernatant. The method, boiled down:
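GLA variants were secreted from INVSc1 yeast grown 66-84 h at 30° C. in SD-Ura with 2% glucose; supernatants were mixed with McIlvaine buffer pH 3.3-4.3 and held at 37° C. for 1-3 h. Residual activity on MUGal at pH 4.8 was then measured by fluorescence.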

The nature of series [3]: HTP-analysis of supernatants pretreated with base (MUGal hydrolysis). The settings on record: challenge at pH 7.1; activity of the variant/activity of WT GLA (SEQ ID NO: 5); yeast supernatant. The gist of the method:
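GLA variants were secreted by transformed INVSc1 yeast grown 66-84 h at 30° C. Supernatants were exposed to neutral-to-basic buffers (pH 7.0-9.7) at 37° C for 1-18 h, then assayed with MUGal in acidic citrate/McIlvaine buffer, with fluorescence read after quenching.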

B1: 86 (protein)
chain: LDNGLARTPTMGWLHWERFMCNLDCQEEPDSCISEKLFMEMAELMVSEGWKDAGYEYLCIDDCWMAPQRDSEGRLQADPQRFPHGIRQLANYVHSKGLKLGIYADVGNKTCAGFPGSFGYYDIDAQTFADWGVDLLKFDGCYCDSLENLADGYKHMSLALNRTGRSIVYSCEWPLYMWPFQKPNYTEIRQYCNHWRNFADIDDSWKSIKSILDWTSFNQERIVDVAGPGGWNDPDMLVIGNFGLSWNQQVTQMALWAIMAAPLFMSNDLRHISPQAKALLQDKDVIAINQDPLGKQGYQLRQGDNFEVWERPLSGLAWAVAMINRQEIGGPRSYTIAVASLGKGVACNPACFITQLLPVKRKLGFYEWTSRLRSHINPTGTVLLQLENTMQMSKPLLL
modifications: Synthetic Polypeptide sequence of Variant No. 86 of mature Human GLA
As to B1, in series [1], the “Relative Activity of GLA Variants After No Challenge (NC)” value was “++ (++ = >1.5 to 2.5 relative activity over WT GLA (SEQ ID NO: 5))”. Moreover, the “Relative Activity of GLA Variants After Challenge at pH 4.2” value (from here on “Relative Activity … at pH 4.2”) in series [2] is reported as “++ (++ = >1.5 to 2.5 relative activity over WT GLA (SEQ ID NO: 5))”. In addition, in series [3], the “Relative Activity of GLA Variants After Challenge at pH 7.1” value (from here on “Relative Activity … at pH 7.1”) is listed as “++ (++ = >1.5 to 2.5 relative activity over WT GLA (SEQ ID NO: 5))”.

B2: 97 (protein)
chain: B1 chain with L158M, P395D
modifications: Synthetic Polypeptide sequence of Variant No. 97 of mature Human GLA
As to B2, the “Relative Activity of GLA Variants After No Challenge (NC)” value in series [1] is “+ (+ = 0.5 to 1.5 relative activity over WT GLA (SEQ ID NO: 5))”. Also, the “Relative Activity … at pH 4.2” value in series [2] was “+ (+ = 0.5 to 1.5 relative activity over WT GLA (SEQ ID NO: 5))”. Also, the “Relative Activity … at pH 7.1” value in series [3] is “+ (+ = 0.5 to 1.5 relative activity over WT GLA (SEQ ID NO: 5))”.

B3: 92 (protein)
chain: B1 chain with K96R, P395D
modifications: Synthetic Polypeptide sequence of Variant No. 92 of mature Human GLA
As for B3, the “Relative Activity of GLA Variants After No Challenge (NC)” value in series [1] was “+ (+ = 0.5 to 1.5 relative activity over WT GLA (SEQ ID NO: 5))”. Also, in series [2], the “Relative Activity … at pH 4.2” value is reported as “+ (+ = 0.5 to 1.5 relative activity over WT GLA (SEQ ID NO: 5))”. Moreover, in series [3], the “Relative Activity … at pH 7.1” value was “+ (+ = 0.5 to 1.5 relative activity over WT GLA (SEQ ID NO: 5))”.

B4: 93 (protein)
chain: B1 chain with K96R, P395D, L397V
modifications: Synthetic Polypeptide sequence of Variant No. 93 of mature Human GLA
Turning to B4, the “Relative Activity of GLA Variants After No Challenge (NC)” value in series [1] is on record as “++ (++ = >1.5 to 2.5 relative activity over WT GLA (SEQ ID NO: 5))”. In addition, in series [2], the “Relative Activity … at pH 4.2” value is recorded as “+++ (+++ = >2.5 relative activity over WT GLA (SEQ ID NO: 5))”. Also, the “Relative Activity … at pH 7.1” value in series [3] is “+ (+ = 0.5 to 1.5 relative activity over WT GLA (SEQ ID NO: 5))”.

B5: 90 (protein)
chain: B1 chain with K96I, P395D
modifications: Synthetic Polypeptide sequence of Variant No. 90 of mature Human GLA
Regarding B5, the “Relative Activity of GLA Variants After No Challenge (NC)” value in series [1] is given as “+ (+ = 0.5 to 1.5 relative activity over WT GLA (SEQ ID NO: 5))”. For the same molecule, in series [2], the “Relative Activity … at pH 4.2” value is reported as “+ (+ = 0.5 to 1.5 relative activity over WT GLA (SEQ ID NO: 5))”. Further, the “Relative Activity … at pH 7.1” value in series [3] was “+ (+ = 0.5 to 1.5 relative activity over WT GLA (SEQ ID NO: 5))”.

B6: 87 (protein)
chain: B1 chain with P395R
modifications: Synthetic Polypeptide sequence of Variant No. 87 of mature Human GLA
Take B6: the “Relative Activity of GLA Variants After No Challenge (NC)” value in series [1] is listed as “+ (+ = 0.5 to 1.5 relative activity over WT GLA (SEQ ID NO: 5))”. In series [2], the “Relative Activity … at pH 4.2” value was “++ (++ = >1.5 to 2.5 relative activity over WT GLA (SEQ ID NO: 5))”. In series [3], the “Relative Activity … at pH 7.1” value was “+ (+ = 0.5 to 1.5 relative activity over WT GLA (SEQ ID NO: 5))”.

B7: 88 (protein)
chain: B1 chain with P395S
modifications: Synthetic Polypeptide sequence of Variant No. 88 of mature Human GLA
As to B7, the “Relative Activity of GLA Variants After No Challenge (NC)” value in series [1] is “+ (+ = 0.5 to 1.5 relative activity over WT GLA (SEQ ID NO: 5))”. Also, in series [2], the “Relative Activity … at pH 4.2” value was “++ (++ = >1.5 to 2.5 relative activity over WT GLA (SEQ ID NO: 5))”. The “Relative Activity … at pH 7.1” value in series [3] is “+ (+ = 0.5 to 1.5 relative activity over WT GLA (SEQ ID NO: 5))”.

B8: 89 (protein)
chain: B1 chain with P395T
modifications: Synthetic Polypeptide sequence of Variant No. 89 of mature Human GLA
For B8, in series [1], the “Relative Activity of GLA Variants After No Challenge (NC)” value is “++ (++ = >1.5 to 2.5 relative activity over WT GLA (SEQ ID NO: 5))”. In addition, the “Relative Activity … at pH 4.2” value in series [2] was “+ (+ = 0.5 to 1.5 relative activity over WT GLA (SEQ ID NO: 5))”. Moreover, the “Relative Activity … at pH 7.1” value in series [3] is given as “+ (+ = 0.5 to 1.5 relative activity over WT GLA (SEQ ID NO: 5))”.

B9: 96 (protein)
chain: B1 chain with L158I, P395D
modifications: Synthetic Polypeptide sequence of Variant No. 96 of mature Human GLA
Consider B9, for which, in series [1], the “Relative Activity of GLA Variants After No Challenge (NC)” value is “+ (+ = 0.5 to 1.5 relative activity over WT GLA (SEQ ID NO: 5))”. Further, the “Relative Activity … at pH 4.2” value in series [2] is listed as “+ (+ = 0.5 to 1.5 relative activity over WT GLA (SEQ ID NO: 5))”. The “Relative Activity … at pH 7.1” value in series [3] is listed as “+ (+ = 0.5 to 1.5 relative activity over WT GLA (SEQ ID NO: 5))”.

B10: 94 (protein)
chain: B1 chain with L100F, P395D
modifications: Synthetic Polypeptide sequence of Variant No. 94 of mature Human GLA
Regarding B10, in series [1], the “Relative Activity of GLA Variants After No Challenge (NC)” value is “+ (+ = 0.5 to 1.5 relative activity over WT GLA (SEQ ID NO: 5))”. In addition, the “Relative Activity … at pH 4.2” value in series [2] was “+ (+ = 0.5 to 1.5 relative activity over WT GLA (SEQ ID NO: 5))”. Besides, the “Relative Activity … at pH 7.1” value in series [3] was “+ (+ = 0.5 to 1.5 relative activity over WT GLA (SEQ ID NO: 5))”.

B11: 100 (protein)
chain: B1 chain with L23T, P395D
modifications: Synthetic Polypeptide sequence of Variant No. 100 of mature Human GLA
With B11, in series [1], the “Relative Activity of GLA Variants After No Challenge (NC)” value is reported as “+ (+ = 0.5 to 1.5 relative activity over WT GLA (SEQ ID NO: 5))”. In addition, the “Relative Activity … at pH 4.2” value in series [2] is listed as “+ (+ = 0.5 to 1.5 relative activity over WT GLA (SEQ ID NO: 5))”. Further, the “Relative Activity … at pH 7.1” value in series [3] is given as “+ (+ = 0.5 to 1.5 relative activity over WT GLA (SEQ ID NO: 5))”.

B12: 95 (protein)
chain: B1 chain with L158A, P395D
modifications: Synthetic Polypeptide sequence of Variant No. 95 of mature Human GLA
As to B12, in series [1], the “Relative Activity of GLA Variants After No Challenge (NC)” value is given as “+ (+ = 0.5 to 1.5 relative activity over WT GLA (SEQ ID NO: 5))”. In addition, the “Relative Activity … at pH 4.2” value in series [2] was “+ (+ = 0.5 to 1.5 relative activity over WT GLA (SEQ ID NO: 5))”. Moreover, the “Relative Activity … at pH 7.1” value in series [3] is on record as “+ (+ = 0.5 to 1.5 relative activity over WT GLA (SEQ ID NO: 5))”.

B13: 98 (protein)
chain: B1 chain with L158R, P395D
modifications: Synthetic Polypeptide sequence of Variant No. 98 of mature Human GLA
For the molecule B13, in series [1], the “Relative Activity of GLA Variants After No Challenge (NC)” value was “+ (+ = 0.5 to 1.5 relative activity over WT GLA (SEQ ID NO: 5))”. In addition, the “Relative Activity … at pH 4.2” value in series [2] is reported as “+ (+ = 0.5 to 1.5 relative activity over WT GLA (SEQ ID NO: 5))”. Besides, in series [3], the “Relative Activity … at pH 7.1” value was “+ (+ = 0.5 to 1.5 relative activity over WT GLA (SEQ ID NO: 5))”.

B14: 91 (protein)
chain: B1 chain with K96L, P395D
modifications: Synthetic Polypeptide sequence of Variant No. 91 of mature Human GLA
As for B14, in series [1], the “Relative Activity of GLA Variants After No Challenge (NC)” value is on record as “+ (+ = 0.5 to 1.5 relative activity over WT GLA (SEQ ID NO: 5))”. In series [2], the “Relative Activity … at pH 4.2” value is given as “+ (+ = 0.5 to 1.5 relative activity over WT GLA (SEQ ID NO: 5))”. Moreover, in series [3], the “Relative Activity … at pH 7.1” value is recorded as “++ (++ = >1.5 to 2.5 relative activity over WT GLA (SEQ ID NO: 5))”.

B15: 99 (protein)
chain: B1 chain with L23M, P395D
modifications: Synthetic Polypeptide sequence of Variant No. 99 of mature Human GLA
Turning to B15, in series [1], the “Relative Activity of GLA Variants After No Challenge (NC)” value is given as “+ (+ = 0.5 to 1.5 relative activity over WT GLA (SEQ ID NO: 5))”. In addition, the “Relative Activity … at pH 4.2” value in series [2] is given as “+ (+ = 0.5 to 1.5 relative activity over WT GLA (SEQ ID NO: 5))”. Besides, the “Relative Activity … at pH 7.1” value in series [3] is on record as “+ (+ = 0.5 to 1.5 relative activity over WT GLA (SEQ ID NO: 5))”.
